Experimental findings from patent US20160200799A1 are described below.

The chains are these.
B1: Group 65 representative clone F083-366, Fab-cp3-type antibody (Fab, V domains shown)
VH: QVQLVQSGSEVKKPGSSVKVSCKASRGIFSSYAISWVRQAPGQGLEWMGAVIPMFGTLKYAENFQGRITISADKSMSAAYMELSSLRSEDTAVYYCARNYYGSGTYFNDAFDIWGQGTMVTVSS
VL: QSVLTQPPSGSGAPGQRVTISCTGGNSNIGAGYDVNGYQQLPGKAPKLLIYGNNNRPSGVPDRFSGSKSGTSASLAITGLQVEDEAHYYCQSYDNGLSGSVFGGGTQLTVLG
B2: Group 43 representative clone F081-007, Fab-cp3-type antibody (Fab, V domains shown)
VH: QVQLQQSGAEVKKPGSSVKVSCKASGGIFRKNAISWVRQAPGQGLEWMGGISAIFGTANYAQKFQGRVTITADESSNTVYMDLSRLRSEDTAIYYCASHPTYHFDKSGYRFDSWGQGTLVTVSS
VL: QSVLTQPPSVSAAPGQKVTISCSGSSSNIGNNYVSWYQQLPGTAPKLLIYDNNKRPSGIPDRFSGSKSGTSATLGITGLQTGDEADYYCGTWDSSLSAGVFGGGTKLTVLG
B3: Group 44 representative clone F081-008, Fab-cp3-type antibody (Fab, V domains shown)
VH: QVQLVQSGAEVKKPGSSVKVSCKASGGTFSSFSTYTISWVRQAPGQGLEWMGRSIPLLGITNYAQKFQGRVTITADISTSTAYMELSSLRSEDTAVYYCARYQSSDYYNSEYFQHWGQGTLVTVSS
VL: EIVLTQSPGTLSLSLGERVTLSCRASQNVGTNYLAWYQQKPGQAPRLLIYGASSRATGVPDRFSGSGSGTDFTLTISRLAPEDFAVYYCQQYSSSPLTFGGGTKLEIK
B4: Group 47 representative clone F083-308, Fab-cp3-type antibody (Fab, V domains shown)
VH: QVQLVQSGAEVKKPGSSVKVSCKASGGIFRSHAISWVRQAPGQGLEWMGGIIAIFGTTHYAQQFQGRVTITADESTSTVYMELSTLRSEDTAVYYCARGPNYFESYFDNWGQGTLVTVSS
VL: EIVLTQSPATLSLSPGERATLSCRASQTISSYLAWYQQKPGQAPRLLIYGASNRATGIPARFSGSGSGTDFTLTINSLEPEDFAVYYCQQRSSWPPITFGQGTRLEIK
B5: Group 48 representative clone F083-389, Fab-cp3-type antibody (Fab, V domains shown)
VH: QVQLVQSGAEVKKPGSSVKVSCKASGDIFNKFAITWVRQAPGQGLEWMGGITALFATTSYAQKFQDRVTINWDESTTTAFMELSSLRFEDTAVYYCARGPNYYETYLDNWGQGTLVTVSS
VL: EIVLTQSPTILSASVGDRVTITCRASQSISKWLAWYQQKPGKVPKLLIYMASTLESGVPSRFSGSGSGSEFTLTISSLQPGDFATYYCQQYNSYPRTFGQGTKVEINV
B6: Group 1 representative clone F080-227, Fab-cp3-type antibody (Fab, V domains shown)
VH: QVQLQESGAEVKKPGSSVKVSCKASGGIFRRNAISWVRQAPGQGLEWMGGIIAIFGTANYAQKFQGRVTITADESTSTVYMELSSLRPEDTAVYYCARGPNYYENFFDYWGQGTLVTVSS
VL: DIVMTQSPSSLSASVGDRLDLTCRASQDIANSLAWYKQRPGKAPELLVFGASRLEGGVPSRFSGTRAGTDFTLTISSLQPEDLGTYFCQQYFSFPRTFGQGTTLDLR
B7: Group 36 representative clone F082-243, Fab-cp3-type antibody (Fab, V domains shown)
VH: B6 VH with E6Q, R31K, E74D, S77N, S84T, P88Y, F106Y, Y109F
VL: EIVLTQSPSSLSASLRDTVTITCRTSQAITNYLAWYQQRPGKAPKLLIYAASVLQSGVPSRFSGSGSGTDFTLTISSLQPEDFATYYCQKYDSAPYTFGQGTKLEIK
B8: Group 2 representative clone F082-220, Fab-cp3-type antibody (Fab, V domains shown)
VH: B4 VH with H32N, I34V, T58P, H59K, Q63K, T85G, S88Y, F103Y, N109Y
VL: DIVMTQSPPSLSASVGDRVTITCRASQGISNYLAWYQQKPGKAPKLLIFGASTLHSGVSSRFSGSGSGPDFTLTISSLQPEDAATYYCQKYHSAPLTFGGGTKVEMK
B9: Group 3 representative clone F081-281, Fab-cp3-type antibody (Fab, V domains shown)
VH: QVQLVQSGSEVKKPGSSVKVSCSFKASGGIISKYAITWVRQAPGQGLEWMGGIIAIFGSTNYAQKFQGRLTITSDESTSTAYMELSSLTSEDTAVYYCGRGPHYYESHLDYWGQGTLVTVSS
VL: EIVLTQSPGTLSLSPGERATLSCRASQGMSSSFLAWYQQKPGQPPRLLISGASTRATGIPDRFSGSGSGTDFTLTINRLEPEDFAVYYCQQYGSSPRTFGQGTKVEIK
B10: Group 35 representative clone F082-117, Fab-cp3-type antibody (Fab, V domains shown)
VH: QVQLVQSGSEVKKPGSSVKVSCKSSGGILRRSAISWVRQAPGQGLEWMGGILAIFGTTKYAQKFQGRITITADESTNTVHMELSSLRPDDTAVYYCAGGPHYYVSYFDSWGQGTLVTVSS
VL: DIQMTQSPATLSLSPGERATLSCRASQSVRSYLAWYQQKPGQAPRLLIYDASNRATGIPARFSGSGSGTEFTLTISRLEPEDFAVYYCQQRSNWLFTFGPGTKVDFK
B11: Group 64 representative clone F083-301, Fab-cp3-type antibody (Fab, V domains shown)
VH: QVQLVQSGAEVKKPGSSVKVSCKASGGIFNSNAISWVRQAPGQGLEWMGGIIGIFGTANYAQKFQGRVTIAADQSTNTVFMELSSLTSEDTAVYFCARSRGYSFGYGTDYFDYWGQGTLVTVSS
VL: DIVMTQSPSTLSASVGDRVTITCRASQSISSWLAWYQQAPGKAPKLLIYEASKLQSGVPSRFSATGSGTEFTLTIASLQPEDFAIYYCQHYEAYPFSFGPGTKLDVK

Substitutions are numbered along the chain they refer to.

One experiment concerns the target Influenza virus A/New Caledonia/20/1999 (H1N1) (Influenza A virus A/New Caledonia/20/1999 (H1N1)). The experiment can be described thus: ELISA on coated viral particles.
Regarding B1, the Binding activity (absorbance at 492 nm) is 2.93.
In the case of B2, the Binding activity (absorbance at 492 nm) was 2.84.
As to B3, the Binding activity (absorbance at 492 nm) was 3.25.
The same measure, in the same setting: the value for B4 was 1.79; that for B5 was 2.72.
Consider B6, for which the Binding activity (absorbance at 492 nm) turned out to be 3.15.
Molecule B7 came in with a Binding activity (absorbance at 492 nm) of 0.96.
The same measure, in the same setting: the value for B8 was 3.37; that for B9 was 2.86.
Molecule B10 returned a Binding activity (absorbance at 492 nm) of 3.35.
B11 returned a Binding activity (absorbance at 492 nm) of 1.34.

A further experiment addresses Influenza virus A/Panama/2007/1999 (H3N2) (Influenza A virus A/Panama/2007/1999 (H3N2)). Put plainly: ELISA on coated viral particles. (An ELISA detects its analyte on a solid surface through an enzyme-linked reagent.)
On to B1, for which the Binding activity (absorbance at 492 nm) worked out at 0.18.
B2: the Binding activity (absorbance at 492 nm) is 0.14.
In the case of B3, the Binding activity (absorbance at 492 nm) is 0.17.
Regarding B4, the Binding activity (absorbance at 492 nm) was 0.16.
On the same count and under the same terms, the value for B5 was 0.14.
Molecule B6 displayed a Binding activity (absorbance at 492 nm) of 0.14.
B7 had a Binding activity (absorbance at 492 nm) of 0.13.
Turning to B8, the Binding activity (absorbance at 492 nm) worked out at 0.16.
The molecule B9 came in with a Binding activity (absorbance at 492 nm) of 0.18.
B10: the Binding activity (absorbance at 492 nm) worked out at 0.15.
Consider B11, for which the Binding activity (absorbance at 492 nm) turned out to be 0.16.

In another experiment the target is Influenza virus A/Brisbane/59/2007 (H1N1) (Influenza A virus A/Brisbane/59/2007 (H1N1)). The experiment can be described thus: ELISA on coated viral particles.
B1 showed a Binding activity (absorbance at 492 nm) of 2.84.
The same measure, in the same setting: the value for B2 was 2.72; that for B3 was 2.89; that for B4 was 1.82.
For B5, the Binding activity (absorbance at 492 nm) came out at 2.83.
In turn, B6 displayed a Binding activity (absorbance at 492 nm) of 3.1.
B7 came in with a Binding activity (absorbance at 492 nm) of 1.05.
Turning to B8, the Binding activity (absorbance at 492 nm) was determined as 3.15.
Turning to B9, the Binding activity (absorbance at 492 nm) amounted to 2.98.
Molecule B10 returned a Binding activity (absorbance at 492 nm) of 3.26.
Still for that read-out and setting: the value for B11 was 1.44.

The target of the next experiment is Influenza virus A/California/7/2009pdm (H1N1pdm) (Influenza A virus A/California/7/2009pdm (H1N1pdm)). Put plainly: ELISA on coated viral particles.
Regarding B1, the Binding activity (absorbance at 492 nm) is 1.13.
For B2, the Binding activity (absorbance at 492 nm) amounted to 2.33.
As for B3, the Binding activity (absorbance at 492 nm) worked out at 0.43.
B4: the Binding activity (absorbance at 492 nm) stood at 1.21.
B5 yielded a Binding activity (absorbance at 492 nm) of 2.49.
B6 showed a Binding activity (absorbance at 492 nm) of 2.95.
Regarding B7, the Binding activity (absorbance at 492 nm) stood at 0.8.
Same read-out and setting: the value for B8 was 2.72.
Same read-out and setting: the value for B9 was 2.87.
B10 displayed a Binding activity (absorbance at 492 nm) of 3.11.
Consider B11, for which the Binding activity (absorbance at 492 nm) is 0.46.
